The target of the test is human cytosolic aminopeptidase P, R535A mutant (human) (UniProt Q9NQW7).
human cytosolic aminopeptidase P, R535A mutant (human), sequence (Q9NQW7 whole entry R535A): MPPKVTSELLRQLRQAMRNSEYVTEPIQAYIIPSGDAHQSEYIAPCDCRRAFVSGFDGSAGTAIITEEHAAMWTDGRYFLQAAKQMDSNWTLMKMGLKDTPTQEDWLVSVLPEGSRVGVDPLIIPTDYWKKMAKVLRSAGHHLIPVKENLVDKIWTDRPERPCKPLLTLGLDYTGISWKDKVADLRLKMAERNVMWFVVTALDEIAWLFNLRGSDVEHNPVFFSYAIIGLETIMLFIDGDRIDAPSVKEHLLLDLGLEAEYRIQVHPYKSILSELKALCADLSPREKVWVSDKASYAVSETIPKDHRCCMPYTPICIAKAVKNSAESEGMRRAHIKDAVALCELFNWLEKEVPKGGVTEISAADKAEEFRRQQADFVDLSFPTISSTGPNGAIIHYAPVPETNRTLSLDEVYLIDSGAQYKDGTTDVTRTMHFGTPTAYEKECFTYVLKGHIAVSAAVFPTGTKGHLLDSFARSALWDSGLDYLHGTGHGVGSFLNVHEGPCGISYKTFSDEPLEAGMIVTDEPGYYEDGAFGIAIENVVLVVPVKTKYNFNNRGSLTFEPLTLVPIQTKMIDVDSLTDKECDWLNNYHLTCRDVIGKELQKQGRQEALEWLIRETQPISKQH

bradykinin, sequence (P01042 whole entry, looked up): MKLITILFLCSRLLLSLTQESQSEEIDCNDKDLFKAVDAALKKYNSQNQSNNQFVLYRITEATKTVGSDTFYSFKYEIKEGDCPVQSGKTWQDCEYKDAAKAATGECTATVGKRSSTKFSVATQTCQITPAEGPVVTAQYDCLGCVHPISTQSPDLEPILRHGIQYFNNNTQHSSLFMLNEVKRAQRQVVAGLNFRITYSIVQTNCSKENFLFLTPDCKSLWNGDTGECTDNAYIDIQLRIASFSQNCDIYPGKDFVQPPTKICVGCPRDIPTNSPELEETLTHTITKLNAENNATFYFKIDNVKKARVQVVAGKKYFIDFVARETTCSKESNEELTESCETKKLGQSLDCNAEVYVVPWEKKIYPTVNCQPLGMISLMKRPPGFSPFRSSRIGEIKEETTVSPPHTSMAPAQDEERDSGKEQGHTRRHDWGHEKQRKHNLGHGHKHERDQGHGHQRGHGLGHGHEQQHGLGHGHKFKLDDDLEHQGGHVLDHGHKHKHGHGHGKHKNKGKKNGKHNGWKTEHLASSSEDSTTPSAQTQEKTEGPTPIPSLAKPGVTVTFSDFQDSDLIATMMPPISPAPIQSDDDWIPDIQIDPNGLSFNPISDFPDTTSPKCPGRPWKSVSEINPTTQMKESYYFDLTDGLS

Take “bradykinin (from UniProt P01042 381-389) (peptide)”: the Km for bradykinin of the hydrolysis catalysed by R535A hcAMPP (HPLC of des-Arg-bradykinin, 50 mM Tris-HCl pH 7.5, 37°C), with 0, 0.1, 1 and 10 mM guanidine hydrochloride: 350, 327, 144 and 163 μM was determined as 350 μM.

The values above are taken from paper PMC5774706.
